Test results as given in PMC7506556, “Structure and function of bacteriophage CBA120 ORF211 (TSP2), the determinant of phage specificity towards E. coli O157:H7” (Scientific Reports, 2020).
Positions count from the first letter of the chain named. Names may count otherwise.

B1: E456A:E483A TSP1 (enzyme)
chain: MNEMFSQGGKGSTGILTNKQAVARHFGVKQSEVVYFSVGVDLGGYKVIYDKETQRAYSLPVGIASGTTAVSLSTAAVLVHSAGSVDLGSLAVSREEYVTLPGSFDSGSTLNVKNELLTYTDGKYRWDGILPKTVAPGSTPASTGGVGLGAWISVGDASLRTQLANGDGSLIGIHPQGTLNNVLTVRTPEQYNAVGDGIADDTSKLKEMLSDINNVPETLPDAAAVNSYMEQVAVKIDLTKLYRFTETLYIPPGVSIEIPTSNFFTRECKQGLFYDPVDKNTAAISLMVYRKQPDGSYKLNKDVDYYPTGLDIDNGDAITCARKIDINNLNLITAPGVKVGVKWIGGAGCTTKGLSIGENTGSDITTARLPRVGLLQSASWGSIHENLRILYKTQGAVFIDSNGGAAVNNAYISRLGNTNGELEQAVYKPAGFTEVGDVAVTQFAGSEVKFNSPIIAQASFDFVHAGRDTDSYGLFMVDKPHIASSGGKKKHSFYLINTSSNVTLSGVGLSGQDPDLDSMYFLKNCPETARNVVRGQMPISGVKLVRGTGNYPTLVLDCTNMGSQFQFGEVGDIFYIKDVVGVKADTLYIDPVNGNNYNWGTNGTKPIRELTNIAKICQLFRCKSVYLNAGESVITSNTELPMVVFEGPGSLKANSGSSFLIKAGGTLSLIGLSGISTDGGHMFRVSTVEKVNIHTNCSVNAGAAYVVLSEVQGNIEYRQLFYSVNCSKYIGATAGQTIAGIMVKTATRPTGIDAAPVDGNVSLTYKIIES
notes: source: E. coli BL21(DE3), purified similar to wild type TSPs
B2: D313N:E456Q:E483Q TSP1 (enzyme)
chain: B1 chain with D313N, A456Q, A483Q
notes: as for B1
B3: E456Q:E483Q TSP1 (enzyme)
chain: B1 chain with A456Q, A483Q
notes: as for B1
B4: bacteriophage CBA120 ORF211 (TSP2), wild type (enzyme, UniProt G3M190 1-921, looked up)
chain: MTRNVEELFGGVITAPHQIPFTYKSNVGGETFLSLPFYPVTGVVTINGGMQVPLDNFEIEGNTLNLGRALSKGDVVYCLFDKILSPEDTAKGIRIYKFQAVGGETEFTPDFTSYGVQSLYIGGEYKTPEIEYSYDSTTGKVSLQTALSAGVWVVAEMSVKQPNISPAFDRSIQEIARSANVKDSEVIVSTDTISLLDGKKVVYDIATQTSYGLPTIPDGSVISSVSAGKLNYNPGDVQVDLLPLEDSFINVINTLGRNDGAKYIGECHSVADLRNTEPTMDGQRIILKQHTAGTLLGGGVFRALIDGTGKTDNNGTVIKTVGGAAWLRVNADRVNPFMFGALGGSNDDTIPVQSCVDSGKATQLTDAHYVSNIQLKYNTSSIYGSGLHYSRLHQLPSATGNCITIKDTCSLIVLDAFGVYGTGAQQGTSFTAGTTGIYVETPSGLSADYPFHTTADPRRDLCISKVHIAGFDEYGLNIDSGNFSVTTDSLLVNHINQVGVRCATTDWTWTNIQVNTCGKQCLVLDGCGNGRIIGGKFIWANWQPYGTVGQFPGITINNSQNMVINGIEVQDCGGNGIEISESYSISMNGLNTNRNGINANNTFYNIVFNKSDAVINGFVGLNYAANSGSGANSSAGNFQFLSNDCSVTINGVVETGYMGINFIGDNNIINPTNSDLSINGLVNYSKTGLQTMNETPTFDGVSTTPVYVSVPSSVGQVNGLRLSQANKDKLLYSRTAGPEGITMAAVIVPTISGAEVFNFMAIGSGFSDTSNSLHLQLVIDASGKQTIALLLGGDGTTQILSGDLPNDLKLQSGVPYHIAIGAKPGYFWWSILNIQTGKRIRRSFRGAYLAVPFNSIFGLTSSLTFFSDSNAGGDACSGVGAKVYVGMFSSENDYVASRYYNLINPVDPTKLISYRILDSSI
notes: 921-residue polypeptide chain; gene codon optimized for E. coli; residues 1-168 have no electron density in the crystal; Calculated monomer mass 99,054 Da with the 6X-His tag; also called tailspike protein 2; wild-type TSP2; source: E. coli Rosetta-gami 2 (pBAD24), purified (Ni-NTA); not shown: 6X-His, C-terminal, kept
B5: D506N:D571N TSP2 (enzyme, UniProt G3M190 1-921, looked up)
chain: B4 chain with D506N, D571N
notes: Made by Q5 site-directed mutagenesis of the TSP2 plasmid; also called TSP2 D506N:D571N double mutant; TSP2 asparagine double mutant; source: E. coli BL21(DE3), purified similar to wild type TSPs
B6: D506N:E568Q:D571N TSP2 (enzyme, UniProt G3M190 1-921, looked up)
chain: B4 chain with D506N, E568Q, D571N
notes: Made by Q5 site-directed mutagenesis of the TSP2 plasmid; source: E. coli BL21(DE3), purified similar to wild type TSPs
B7: TSP2 D506N:D571N:Y623A mutant (enzyme, UniProt G3M190 1-921, looked up)
chain: B4 chain with D506N, D571N, Y623A
notes: as for B6
B8: D506A:D571N TSP2 (enzyme, UniProt G3M190 1-921, looked up)
chain: B4 chain with D506A, D571N
notes: as for B6
B9: D506N:E568A:D571N TSP2 (enzyme, UniProt G3M190 1-921, looked up)
chain: B4 chain with D506N, E568A, D571N
notes: as for B6
B10: D506A:D571A TSP2 (enzyme, UniProt G3M190 1-921, looked up)
chain: B4 chain with D506A, D571A
notes: Made by Q5 site-directed mutagenesis of the TSP2 plasmid; also called TSP2 D506A:D571A double mutant; source: E. coli BL21(DE3), purified similar to wild type TSPs
B11: D506N:D571A TSP2 (enzyme, UniProt G3M190 1-921, looked up)
chain: B4 chain with D506N, D571A
notes: as for B6

Tests used:
[1] = molecular target: the molecule itself; test: not stated; purified TSP1 site-directed mutants; how the trimeric state was shown is not told
[2] = molecular target: the molecule itself; test: crystal structure; sitting drops, vapor diffusion, room temperature, 0.8 M ammonium sulfate, 0.1 M HEPES pH 7.0; 1.9 Å; two homotrimers in the asymmetric unit
[3] = molecular target: the molecule itself; test: not stated; purified TSP2 site-directed mutants; how the trimeric state was shown is not told

Row | Protein | stoichiometry N [3] | other results
1 | B1 | – | stoichiometry N [1]: 3
2 | B2 | – | stoichiometry N [1]: 3
3 | B3 | – | stoichiometry N [1]: 3
4 | B4 | – | stoichiometry N [2]: 3
5 | B5 | 3 | –
6 | B6 | 3 | –
7 | B7 | 3 | –
8 | B8 | 3 | –
9 | B9 | 3 | –
10 | B10 | 3 | –
11 | B11 | 3 | –
